According to the nanobody polyreactivity screen of Harvey et al. (2022):

Test: yeast display, Sf9 membrane polyspecificity reagent, FACS + sequencing; frameworks hold sequencing errors
How it was run: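 In a synthetic yeast display library (Saccharomyces cerevisiae BJ5465), nanobody expression was induced with galactose for 36–48 hours. FACS gates were set low and high (top ~1%) using anti-HA fluorescence for expression and streptavidin fluorescence for binding of the Sf9 membrane reagent. Each polyreactivity label is drawn from the gate of origin.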

Sequence	polyreactivity (PSR sort gate)
QVQLVESGGGLVQAGGSLRLICAGSGSTFPTYAMGWYRQAPGKERELVAAITSGSGTNTYYADSVKGRFTISRDNAKNTVYLQMNSLKPEDTAVYYCAASGGKNGMNYWGQGTQVTVSS	high polyreactivity
QVQLVESGGGLVQAGGSLRLICAPSGITFYPYSMGWSRQAPGKERELVAAISGGTNTHYADSVKGRFTISRDNAKNTDYLQMNSLKPVDTAVYYCAAGIDFRRTTSYSFWFDYWGQGTQVTVSS	high polyreactivity
QVQLVESGGGLVQAGGSLRLICASSGRIFSPYVMGWYRQAPGKERELVARISWTGSSTYYADSVKGRFTISRDNAKNTVYLQMNSLKPEDTAVYYCAKRLTRFYTRLEYWGLGTQVTVSS	low polyreactivity
QVQLVESGGGLVQAGGSLRLICDASGRTFPPYAMGWYRQAPGKERELVAAISRRAGTTYYADSVKGRFTISRDNAKNTDYLQMNSLKPEDTAVYYCAADTPVWSGYWYDYWGQGTQVTVSS	low polyreactivity
QVQLVESGGGLVQAGGSLRLICPASGSTFQYYAMGWYRQAPGKEREFVAAIRSSGGTTYYADSVKGRFTISRDNAKKTVYLQMNSLKPEDTAVYYCATVVNYPSARYCYWGQGTKVTVSS	high polyreactivity
QVQLVESGGGLVQAGGSLRLICSASGSTFNLYAMGWYRQAPWTERELVAAISYRGGTTYYADSVKGRFTISRDNAKHTVYLQMNSLKREDTAVYYCSAGWRPRSLRDASKYDFWGQGTQVTVSS	low polyreactivity
QVQLVESGGGLVQAGGSLRLNCAASGITFGYNAMGWYRQPPGKERELVAAISSRGGSTYYADSVKGRFTISRDNAKNTVYLQMNSMKPEDTAVYYCAKDGGPGRYAWYWPVRMGYWGQGTQVTVSS	high polyreactivity
QVQLVESGGGLVQAGGSLRLNCAASGITIRRYAMGCYRQAPGNERELVAAITTGGGGTYYADSVKGRFTISRDNAMNTVYLQMNSLKPEDTAVYYCAATYWRTYPSYYWGQGTQVTVSS	high polyreactivity
QVQLVESGGGLVQAGGSLRLNCAASGNIFISYAMGWYRQAPGKERELVAAISRSGGSTYYADSVKGRFTISRDYAKNTVYLQMNSLKPEDTAVYYCAAYIGPGRYGSWGQGTQVTVSS	high polyreactivity
QVQLVESGGGLVQAGGSLRLNCAASGSIFGQYTMGWYRQAPGKERELVADITSGGSTYYADSVKGRFTISRDNAKNTVYLQMNSLKPEDPAVYYCAAVDWKAHWEMGYWGQGTQVTVSS	low polyreactivity
QVQLVESGGGLVQAGGSLRLNCAASGSILYLNAMGWYRQAPGKERELLAAITWSGGSTSYADSVKGRFTISRDYAKNTVSLQMNSLKPEDTAVYYCSAVRRGYGGVYYAGGYWGQGTQVTVSW	low polyreactivity
QVQLVESGGGLVQAGGSLRLNCAASGSTFNRNAMGWYRQAPGKERELVATISSGGSTNYADSVKGRFTITRDNAKNTVYLLMISLYPEDTWVYYCAKRSLYRYYYWGQGSQVTVSS	high polyreactivity
QVQLVESGGGLVQAGGSLRLNSAASGIIFPRYAMGWYSQAPGKEWEVVAGFTSSGGTYYADSVKGRFTISRDHAKNTVYLQMNSLIPEDTAVYYCAARQGNLRRGVRWFNYWGQGTQVTVSS	high polyreactivity
QVQLVESGGGLVQAGGSLRLRCAASGFIFSAYAMGWYSQAPGKERELVAGITKSVGRTTYADSVKGRFTIARDNAKNTVYLQMNSLKPEDTAVYYCNARRSYTYRIFGMDYWGQGTQVTVSS	high polyreactivity
QVQLVESGGGLVQAGGSLRLRCAASGFNFSFDNAMGWYRQAPGKERELVAAISSGTTTHYADSVKGRFTISRDNAKNTVYLQMNSLKPEDTAVYYCAADTAQQSGYEYDYWGQGTQVTVSS	low polyreactivity
QVQLVESGGGLVQAGGSLRLRCAASGFNSVRNAMGWYRPAPGKEREFVAAISGGGGSTYYADSVKGRFTISRDNAMNTVYLQMNSLKPEDTAVYYCAPRSYWGQGTQVTVSS	high polyreactivity
QVQLVESGGGLVQAGGSLRLRCAASGIIFPYYTMGGYRQAPGKERELVARITNGGRTYYADSVKGRFTISRDNAKNTVYLQMNSLKPEYTAVYYCIAGRYYIGGYWGQGTQVTVSS	high polyreactivity
QVQLVESGGGLVQAGGSLRLRCAASGIIFSPYDMGWSIQAPGKVRELVAAITTGDSTNYADSVKGRFTMSRDNAKTTVYFPMNSLKPEDTAVDYCNATDTYVFFLYLEFDYWGQGTQVTVSS	low polyreactivity
QVQLVESGGGLVQAGGSLRLRCAASGIIFTGYALGWYRQAPGKESELVAAISRSGGGTYYADSVKARFTISRDNAKNTVYLQINSLKPEDTAVYYCNRLRIAASYWQAYDYWGQGTQVTLSS	high polyreactivity
QVQLVESGGGLVQAGGSLRLRCAASGIIQQSYALGWSRQAPGKERELVAAIRGSDGSTYYADSVKGRFTISRDNAKNTVYLQMNSLKPEDTAVYYCNADTRTWPLDYWGQGTQVTVSS	low polyreactivity
QVQLVESGGGLVQAGGSLRLRCAASGNIFLSYAMGWYRQAPGKERELVAGISASGGRTYYADSVKGRFTISRDNAKNTVYLQMNSLKPEDTAVYYCATRGQTRTTTRYYSWGQGTQVTVSS	high polyreactivity
QVQLVESGGGLVQAGGSLRLRCAASGRIFARNAMGWYRQAPGKERELVAAISSRGSSTYYADSVKGRFTISRDNAKNTVYLQMNSLKPEDTAVYYCNAYYSVYPPGYDYWGQGTQVTVSS	high polyreactivity

Sequence	polyreactivity (PSR sort gate)
QVQLVESGGGLVQAGGSLRLRCAASGRIFDANAMGWYRQAPGKERELVAAITSRGGTTFYADSVKGRFTISRDNEKNTDYLQMNSLKPEDTAVYYCAADRYYFYRRYDYWGQGTQVTVSS	high polyreactivity
QVQLVESGGGLVQAGGSLRLRCAASGRIFGRNAMGWYRQAPGKERELVAAISGGGSTNYADSVKGRFTISRDNAKNTVYLQMKSLKPADTAVYYCAVKQGFYSRALKLYYWGQGTQVTVSS	high polyreactivity
QVQLVESGGGLVQAGGSLRLRCAASGRIFLPYAMGWYRQAPGKERELVAGISSRGSTKYADSVKGRFTISRDNAKNTVYLQMNTLKPEETAVYYCNKVKKSDKFNNFSNDYWGQGTQVTVSS	high polyreactivity
QVQLVESGGGLVQAGGSLRLRCAASGRIFRKYAMGWYRQAPGKERELVAAITSGGSTYYADSVKGRFTISRDNAKNTVYLQMNSLKPEDTAVYYCAAFYRGGDYWGQGTQVTVSS	high polyreactivity
QVQLVESGGGLVQAGGSLRLRCAASGRIFRPYTMGWYRQAPGKERELVAAITSGSSTNYADSVKGRFTISRDNAKNTVYLQMNSLKPEDTAVYYCAVKVRIFASYYPFYYWGQGTQVTVSS	high polyreactivity
QVQLVESGGGLVQAGGSLRLRCAASGRIFVYNAMGWYRQAPGKERELVAAISRSGSSTYYADSVKGRFTISRDNAKNTVYLQMYSLKPEDTSVYYCAARTFSIAYYKYGYWGQGTHVTVSS	high polyreactivity
QVQLVESGGGLVQAGGSLRLRCAASGRTFAVYAMGWYRQAPGKERELVAAITLGASRSYYADSVKGRFTISRDNAKNTVYLHMNSLKPEDTAVYYCNAVGRRNVVSSLNDYWGQGTQVTVSS	low polyreactivity
QVQLVESGGGLVQAGGSLRLRCAASGRTFCWYAMGWYRQAPGKERELVADITYSGGNTYYADSVKGRFTITRDNAKNTVYLQMNSLKPEDTAVYYCAAERKNKYDYWGQGTQVTVTS	high polyreactivity
QVQLVESGGGLVQAGGSLRLRCAASGRTFDTYAMGWYRQAPWKERELVASITYRGGSTYYADSVKGRFTISRDNGKNTVYLQLNSLKPVDTAVYYCNAKVKRNKRWRGYWGQGTQVTVSS	high polyreactivity
QVQLVESGGGLVQAGGSLRLRCAASGRTFLTNTLGWYRQAPGKERELVAAISSGGSTKYADSVKGRFTISRDNAKNTVYLQMNSLKTEDTAVYYCAATGWRYGYKYYYWGQGTQVTVSS	high polyreactivity
QVQLVESGGGLVQAGGSLRLRCAASGRTFWWNAMGWYRQAPGKERELVAGTYSRGGGTYYADSVKGRFTISRDNAKNRVYLQMNRLKAEDTAVYYCASQAPVYRYYYWGQGTQVTVSS	high polyreactivity
QVQLVESGGGLVQAGGSLRLRCAASGRTFYYNVMGWYRQAPGKERELVATITSGASTNYADSVKGRFTISRDNAKNTVYLQMNSLKPEDTAVYYCNTEYYPRWYGPYSYYDFDSWGQGTEVTVSS	low polyreactivity
QVQLVESGGGLVQAGGSLRLRCAASGRTLGRYAMGWYRQAPGKDRELVAAIRIGGGSTYYADSVKGRFTISRDNAKNTVYLQMISLKPEDTAVYYCATRGYINGAGFGYWGQGTQVTVSS	high polyreactivity
QVQLVESGGGLVQAGGSLRLRCAASGSIFFYYVMGWYRQAPGKEREFVAAITYSGGSTYYADSVKGRFTISRDNAKNTVYFQMNSMQQEDTAVYYCAADYSPSIGGFWFGGRHYGYWGQGTQVTVSS	low polyreactivity
QVQLVESGGGLVQAGGSLRLRCAASGSIFPWYAMGWYRQAPGKERELVAAITISGGSTHYADSVKGRFTISRDNAKNTVYLQMNCLKPEDTAVYYCATPRYPSYDYWGQGTQVTVSS	low polyreactivity
QVQLVESGGGLVQAGGSLRLRCAASGSNFNPYAMGWYRQAPGKERELVAAINSRGGSTYYADSVKGRFTISRDNANNTVYLQMNSLKPQDTAVYYCAARTRRRTSAYEYWGQGTQVTVSS	high polyreactivity
QVQLVESGGGLVQAGGSLRLRCAASGSTFHIYAMGWYRQAPGKERELVAAISKGGGNTYYADSVKGRFTISRDNAKNPVYLQLNSLKPEDTAGYYCAAVPTRYRSYSYTYGGYNYWGQGTQVTVSS	high polyreactivity
QVQLVESGGGLVQAGGSLRLRCAASGSTFRNAMGWYRQAPGKERELVAAISYSGGRTYYADSVKGRFTISRDNAKNTVYLQMNSLKPEDTAVYYCASPGVSWSTRSYYYWGQGTQVTVSS	high polyreactivity
QVQLVESGGGLVQAGGSLRLRCAASGSTFSIYAMGWYRQATGKQRELVAAISSSGGSTYYADSVKGRFTISRDTAKNTGYLQMNSLKPEDTAFYYCNKRKYHVRYDYWGQGTQVTVSS	low polyreactivity
QVQLVESGGGLVQAGGSLRLRCAASGSTSPNAMGWYRQAPGKERELVAAIWSGGTYYADSVKGRFTISRDNAKNTVYLQMNSLKPEDTAVYYCAVTGVYRGFRYGYWGQGTQVTVSS	low polyreactivity
QVQLVESGGGLVQAGGSLRLRCAASGTTFRLYAMGWYRQAPGKERELVAAISWIGGRTYYADSVKGRFTISRDNAKNTVYLQMNSLKPEDTAVYYCAATCAYRVARGYDYWGQGTQVTVSS	high polyreactivity
